Results on eight molecules are retold here after paper PMC3906306 (mAbs, 2013).

A word on the Kd: it is the equilibrium constant for the complex coming apart. Higher therefore signals a looser complex.

B1: hu225 VL:G30Y (antibody, V domains shown)
VH: EVQLVESGGGLVQPGGSLRLSCAASGFSLTNYGVHWVRQAPGKGLEWLGVIWSGGNTDYNTPFTSRLTINKDNSKNTVYLQMNSLRAEDTAVYYCARALTYYDYEFAYWGQGTLVTVSS
VL: DILLTQSPGTLSLSPGERATLSCRASQSIYTNIHWYQQKPGQAPRLLIKYASESISGIPDRFSGSGSGTDFTLTISRLEPEDFAVYYCQQNNNWPTTFGQGTKLEIK

One assay concerns the target EGFR extracellular domain-Cλ fusion protein (Homo sapiens) (UniProt P00533). Briefly: SPR. For orientation: In SPR one partner is held on a chip, and binding of the other changes the refractive index at the surface.
As for hu225 VH:F100cY (antibody), the Kd came out at 4 nM. Consider hu225 VH:G33D (antibody), for which the Kd stood at 1.9 nM. In turn, hu225 VH:T57G (antibody) showed a Kd of 3.9 nM. For the molecule hu225 VH:T97D (antibody), the Kd worked out at 1.6 nM. hu225 VH:V50L (antibody) returned a Kd of 3.1 nM. On the same count and under the same terms, the result for hu225 VH:Y32R (antibody) reads 6.8 nM. Regarding hu225 VL:A25V (antibody), the Kd amounted to 3 nM. Compared with the last molecule, the Kd is about 2.3-fold lower.

The next assay has as its target EGFR extracellular domain-Cλ fusion protein (Homo sapiens, UniProt P00533). Briefly: SPR.
For the molecule B1, the affinity, expressed as Kd, was 1.8 nM.
